Test results: patent US20190142868A1, “METHODS OF TREATING DISEASES ASSOCIATED WITH ILC3 CELLS” (Instituto de Medicina Moleccular, priority 2016, published 2019)

Columns and labels:
[1] = system: RET; conditions: cited from earlier work; for RET autophosphorylation: Tokugawa et al. 2003 (XIB4035, GDNF), Akeno-Stuart et al. 2007 (AST 487)
[2] = system: neurosphere-derived glial cells; assay: Activation of neurosphere-derived glial cells, alone or co-cultured with ILC3; type: cell-based, mice; conditions: for innate Il22 in ILC3 co-cultured with glial cells: 24 hours of co-culture, MYD88 dependent; for GFL expression in glial cells: activation of neurosphere-derived glial cells
Description: Neurosphere-derived glial cells were obtained as previously described^60. Briefly, total intestines from E14.5 C57BL/6J and Myd88^−/− mice were digested with collagenase D (0.5 mg/mL; Roche) and DNase I (0.1 mg/mL; Roche) in DMEM/F-12, GlutaMAX, supplemented with 1% hepes, streptomycin/penicillin and 0.1% β-mercaptoethanol (Gibco) for approximately 30 minutes at 37° C. under gentle agitation. Cells were cultured during 1 week in a CO2 incubator at 37° C. in DMEM/F-12, GlutaMAX™, streptomycin and penicillin and 0.1% P3-mercaptoethanol (Gibco) supplemented with B27 (Gibco), EGF (Gibco) and FGF2 (Gibco) 20 ng/mL. After 1 week of culture cells were treated with 0.05% trypsin (Gibco), transferred into PDL (Sigma-Aldrich) coated plates and culture in DMEM supplemented with 10% FBS, 1% hepes, glutamine, streptomycin and penicillin and 0.1% β-mercaptoethanol (Gibco) until confluence. Glial cells were activated with TLR2 (5 μg/ml) (Pam3CSK4), TLR3 ([…]) (PolyI:C), TLR4 (50 ng/ml) (LPS), TLR9 ([…]) (DsDNA-EC) ligands from Invivogen and IL-1β (10 ng/mL) (401ML005), IL-18 (50 ng/mL) (B002-5), IL-33 (0.1 ng/mL) (3626ML) recombinant proteins from R&D Systems. Cells were also co-cultured with purified ILC3 from WT and Illb deficient mice. IL-22 expression in glial-ILC3 co-cultures upon TLR4 activation was also performed using GDNF ([…]) (AB-212-NA), NRTN ([…]) (AF-387sp) and ARTN (0.3 μg/mL) (AF-1085-sp) blocking antibodies. Cells were analysed after 24 hours of co-culture.

For `CCN1CCN(Cc2ccc(NC(=O)Nc3ccc(Oc4cc(NC)ncn4)cc3)cc2C(F)(F)F)CC1` [AST 487, 1-[4-[(4-ethylpiperazin-1-yl)methyl]-3-(trifluoromethyl)phenyl]-3-[4-[6-(methylamino)pyrimidin-4-yl]oxyphenyl]urea], the “activation of downstream effectors of RET” value ([1]; Akeno-Stuart et al. 2007) is given as “inhibit” and the RET autophosphorylation [1] is given as “inhibit”.

For `CCN(CC)CCCC(C)Nc1cc(/C=C/c2ccccc2Cl)nc2cc(Cl)ccc12` (centres unmarked) [XIB4035, N(4)-(7-chloro-2-[(E)-2-(2-chloro-phenyl)-vinyl]-quinolin-4-yl)-N(1),N(1)-diethyl-pentane-1,4-diamine], the RET autophosphorylation [1] is listed as “induced”.

B1: GDNF: Glial cell-derived neurotrophic factor, a GFRα1 ligand (protein, UniProt P39905 78-211, looked up)
Glial cell line-derived …: SPDKQMAVLPRRERNRQAAAANPENSRGKGRRGQRGKNRGCVLTAIHLNVTDLGLGYETKEELIFRYCSGSCDAAETTYDKILKNLSRNRRLVSDKVGQACCRPIAFDDDLSFLDDNLVYHILRKHSAKRCGCI
In the case of B1, the RET autophosphorylation [1] is given as “induced”.

B2: IL-1β: recombinant protein from R&D Systems (401ML005), alarmin (protein, UniProt P10749 118-269, looked up)
Interleukin-1 beta: VPIRQLHYRLRDEQQKSLVLSDPYELKALHLNGQNINQQVIFSMSFVQGEPSNDKIPVALGLKGKNLYLSCVMKDGTPTLQLESVDPKQYPKKKMEKRFVFNKIEVKSKVEFESAEFPNWYISTSQAEHKPVFLGNNSGQDIIDFTMESVSS
With B2 the “innate Il22 in ILC3 co-cultured with glial cells” value [2] was “induced robust” and the “GFL expression in glial cells” value [2] was “efficiently controlled”.

B3: IL-33: recombinant protein from R&D Systems (3626ML), alarmin (protein, UniProt Q8BVZ5 1-266, looked up)
Interleukin-33: MRPRMKYSNSKISPAKFSSTAGEALVPPCKIRRSQQKTKEFCHVYCMRLRSGLTIRKETSYFRKEPTKRYSLKSGTKHEENFSAYPRDSRKRSLLGSIQAFAASVDTLSIQGTSLLTQSPASLSTYNDQSVSFVLENGCYVINVDDSGKDQEQDQVLLRYYESPCPASQSGDGVDGKKLMVNMSPIKDTDIWLHANDKDYSVELQRGDVSPPEQAFFVLHKKSSDFVSFECKNLPGTYIGVKDNQLALVEEKDESCNNIMFKLSKI
In the case of B3, the “innate Il22 in ILC3 co-cultured with glial cells” value [2] is reported as “induced robust” and the “GFL expression in glial cells” value [2] is reported as “efficiently controlled”.
